Reference: patent publication US20250011363A1, “OPTIMIZED SHORTENED PEPTIDE THAT BINDS TO ACETYLCHOLINE RECEPTOR, AND USE THEREOF” (SKINMED CO., LTD., priority 2021, published 2025)

Biological target: acetylcholine receptor
Test: SPR, receptor immobilized, peptide 10 uM

Row | Binder | Binding affinity (RU)
1 | KYWEKK [6mer-2-867] | 32 RU
2 | RTPNRR [6mer-2-868] | 30 RU
3 | RHDHKR [6mer-2-869] | 18 RU
4 | KMTEKK [6mer-2-870] | 21 RU
5 | REMPKR [6mer-2-871] | 31 RU
6 | KTHFRK [6mer-2-872] | 28 RU
7 | KNWGRR [6mer-2-873] | 11 RU
8 | KIHFRK [6mer-2-874] | 33 RU
9 | RIDHRK [6mer-2-875] | 13 RU
10 | KEDNKR [6mer-2-876] | 17 RU
11 | KPPERR [6mer-2-877] | 17 RU
12 | KETVRR [6mer-2-878] | 24 RU
13 | RTMDRR [6mer-2-879] | 19 RU
14 | RTHHKK [6mer-2-880] | 12 RU
15 | KDTEKK [6mer-2-881] | 33 RU
16 | RTPAKR [6mer-2-882] | 15 RU
17 | RTNEKR [6mer-2-883] | 22 RU
18 | KMTMKK [6mer-2-884] | 11 RU
19 | KCMVRR [6mer-2-885] | 17 RU
20 | KTWVRR [6mer-2-886] | 13 RU
21 | RCPKKR [6mer-2-887] | 18 RU
22 | RIAKRK [6mer-2-888] | 17 RU
23 | REWDKK [6mer-2-889] | 12 RU
24 | RDNPKR [6mer-2-890] | 30 RU
25 | RTSIRK [6mer-2-891] | 28 RU
26 | KDENRK [6mer-2-892] | 27 RU
27 | REHVRR [6mer-2-893] | 17 RU

Row | Binder | Binding affinity (RU)
28 | RFHWRR [6mer-2-894] | 22 RU
29 | KYMAKK [6mer-2-895] | 28 RU
30 | RTCARR [6mer-2-896] | 30 RU
31 | RPAHKK [6mer-2-897] | 17 RU
32 | KKKDKK [6mer-2-898] | 16 RU
33 | KHTWR [5mer-749] | 24 RU
34 | KPPGR [5mer-1049] | 29 RU
35 | KEADK [5mer-750] | 13 RU
36 | KPEDR [5mer-1050] | 31 RU
37 | RYMMR [5mer-751] | 20 RU
38 | RYAHR [5mer-1051] | 28 RU
39 | KAWVK [5mer-752] | 26 RU
40 | RNDWR [5mer-1052] | 17 RU
41 | RKTPK [5mer-753] | 30 RU
42 | KHEHK [5mer-1053] | 27 RU
43 | RKNER [5mer-754] | 29 RU
44 | RNKVR [5mer-1054] | 21 RU
45 | KNWDR [5mer-755] | 15 RU
46 | KHHEK [5mer-1055] | 15 RU
47 | RCDWR [5mer-756] | 18 RU
48 | RCTPK [5mer-1056] | 11 RU
49 | KYCMR [5mer-757] | 17 RU
50 | RFDPK [5mer-1057] | 13 RU
51 | KCDFK [5mer-758] | 30 RU
52 | KIPWR [5mer-1058] | 25 RU
53 | KHKMR [5mer-759] | 17 RU
54 | RMAGR [5mer-1059] | 29 RU

Row | Binder | Binding affinity (RU)
55 | RIWAR [5mer-760] | 19 RU
56 | KTHIK [5mer-1060] | 29 RU
57 | RMPWR [5mer-761] | 31 RU
58 | KDSFR [5mer-1061] | 24 RU
59 | KMPER [5mer-762] | 21 RU
60 | RAPWR [5mer-1062] | 24 RU
61 | RCHVR [5mer-763] | 30 RU
62 | RPHVK [5mer-1063] | 20 RU
63 | KTWPK [5mer-764] | 19 RU
64 | KCMKR [5mer-1064] | 20 RU
65 | RNEFR [5mer-765] | 12 RU
66 | KNPIR [5mer-1065] | 18 RU
67 | RNMEK [5mer-766] | 30 RU
68 | RFWVK [5mer-1066] | 25 RU
69 | RFHFK [5mer-767] | 12 RU
70 | KHENK [5mer-1067] | 23 RU
71 | RDSWR [5mer-768] | 11 RU
72 | RMHKK [5mer-1068] | 11 RU
73 | KTEWK [5mer-769] | 32 RU
74 | RPSFK [5mer-1069] | 31 RU
75 | KKPFR [5mer-770] | 11 RU
76 | RETGK [5mer-1070] | 26 RU
77 | RKWVK [5mer-771] | 24 RU
78 | RYEGR [5mer-1071] | 16 RU
79 | KYWFK [5mer-772] | 11 RU
